Test [1] deals with α7-Venus nAChR subunit (mouse) (UniProt P49582). Put plainly: FRET or BRET; sensitized acceptor emission FRET between CFP-RIC-3 (donor) and α7-Venus, β2YFP (with nonfluorescent α4) or α4YFP (with nonfluorescent β2) co-transfected in living HEK293T cells at cDNA ratios of CFP-RIC-3 to subunit of 0.2:1, 0.5:1, 1:1 or 5:1. In general terms: BRET reads energy transfer from a luciferase to a nearby fluorophore.

The target of test [2] is β2YFP nAChR subunit (mouse) (UniProt Q9ERK7). The test is described as above.
Chain of UniProt Q9ERK7 (Q9ERK7 26-501): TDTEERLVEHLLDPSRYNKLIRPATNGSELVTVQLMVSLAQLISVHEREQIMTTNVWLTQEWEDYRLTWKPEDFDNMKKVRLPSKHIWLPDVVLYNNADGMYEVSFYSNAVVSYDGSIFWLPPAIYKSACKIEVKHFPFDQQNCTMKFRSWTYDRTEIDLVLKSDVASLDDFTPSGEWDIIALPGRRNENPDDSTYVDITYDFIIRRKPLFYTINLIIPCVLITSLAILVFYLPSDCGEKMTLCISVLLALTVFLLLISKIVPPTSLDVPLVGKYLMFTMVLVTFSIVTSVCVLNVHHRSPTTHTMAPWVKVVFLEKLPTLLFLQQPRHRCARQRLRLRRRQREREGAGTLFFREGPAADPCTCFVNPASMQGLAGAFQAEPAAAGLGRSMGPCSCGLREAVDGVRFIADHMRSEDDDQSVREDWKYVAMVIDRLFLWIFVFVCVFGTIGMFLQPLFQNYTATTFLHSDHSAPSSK

Chain of UniProt P49582 (P49582 23-502): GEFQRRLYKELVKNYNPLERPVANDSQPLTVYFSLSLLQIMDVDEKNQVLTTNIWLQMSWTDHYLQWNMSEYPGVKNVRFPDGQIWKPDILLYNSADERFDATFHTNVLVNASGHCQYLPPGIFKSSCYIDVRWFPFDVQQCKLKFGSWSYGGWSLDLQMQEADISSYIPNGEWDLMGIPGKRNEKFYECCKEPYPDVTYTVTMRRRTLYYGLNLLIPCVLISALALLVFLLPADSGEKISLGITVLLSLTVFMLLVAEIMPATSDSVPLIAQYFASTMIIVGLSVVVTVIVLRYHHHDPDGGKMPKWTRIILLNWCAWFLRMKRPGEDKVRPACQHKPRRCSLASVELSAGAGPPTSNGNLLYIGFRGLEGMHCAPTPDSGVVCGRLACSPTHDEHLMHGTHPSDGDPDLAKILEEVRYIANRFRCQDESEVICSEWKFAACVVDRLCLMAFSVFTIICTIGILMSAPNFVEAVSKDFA

Turning to “CFP-RIC-3 (cyan fluorescent protein fused to the N terminus of RIC-3) (from UniProt Q7Z5B4 29-369) (natural protein)”, the FRET efficiency (CFP-RIC-3 to α7-Venus 1:1) in test [1] is 26%. For the same substance, in test [2], the FRET efficiency (CFP-RIC-3 to β2YFP 0.2:1) amounted to 10.8% and the FRET efficiency (CFP-RIC-3 to β2YFP 0.5:1) is 10.7%.

For the origin of these results see paper PMC3637639.
